In the DeepSol protein solubility set:

test: soluble on expression in E. coli; label from the status in PepcDB or PDB records

Sequence | soluble on expression in E. coli
MGNRLKAARSPYLLAHAEDPVDWYPFGEEAFRKAQAEDKPIFLSVGYASCHWCHVMHRESFQDEEVARLLNAHFVPVKVDREERPDVDAAYMRALVSLTGQGGWPMSLFLTPEGKPFFGGTYFPKEDRMGLPGFKRVLVAVAEAWAGKREAILEEAERLTRALWKSLSPPPGPLPEGAEEEALDHLERAFDPEWGGFLPAPKFPQGPLLLYLLARAWEGEERAARLLRPTLRAMALGGVYDQVGGGFHRYSVDRFWRLPHFEKMLYDNALLARVYLGAYKLFGEDLFLRVARETLDWLLSMQRREGGFHTALDAESEGEEGRYYTWTEAELREALGEDFPLARRYFALGEDLGERSVLTAWGEAEARKALGEGFFAWREGVRAKLQGARRRRMPPALDDKVLADWSALAVRALAEAGRLFGEERYLEAAKRGARFLLAHMYREGLLRHTWRGSLGEEAYLSDQAFAALAFLELYAATGEWPYLDWAQRLAEAGWRLFREGPSLPLPAKEVEEGALPSGESALAEALVRLGAVFGGDYRERAEEVLAEKARWLARYPHALPGALLAKALWERGTELALPLPSPLLEAARGAFLPLTQLVLGPAGALPALEGREAGKAYVCRRGVCLLPVDRWEEVEARVRGDD | soluble
MLTVIAEIRTRPGQHHRQAVLDQFAKIVPTVLKEEGCHGYAPMVDCAAGVSFQSMAPDSIVMIEQWESIAHLEAHLQTPHMKAYSEAVKGDVLEMNIRILQPGI | soluble
MGSDKIHHHHHHMQVPSGAADLPEQMGTKAKFWFDDSRRLFKEGRPGTGENWAEVIAAELAALLGLPHATYSLAEYEGRRGVVTESFVPSGARLILGNELIGFAARETVSRHTRGQAHTIGRLSSLLNRPQVALPSGWVSPTSFFNAADVMSGYLLLDALIANQDRHEENWGLINSHGAIYLAPTFDHASSLGRNETDQRRIQKLDANHPDHGVLGYARRAKVPIYDGMGPLQSGEAFFAFARSCPDKGAYWLNRLHELDPSSFLALLNRIPVGWITDPARRFAAELLKVNRDRLLDEK | not soluble
MKILVTSGGTSEAIDSVRSITNHSTGHLGKIITETLLSAGYEVCLITTKRALKPEPHPNLSIREITNTKDLLIEMQERVQDYQVLIHSMAVSDYTPVYMTGLEEVQASSNLKEFLSKQNHQAKISSTDEVQVLFLKKTPKIISLVKEWNPTIHLIGFKLLVDVTEDHLVDIARKSLIKNQADLIIANDLTQISADQHRAIFVEKNQLQTVQTKEEIAELLLEKIQAYHSLEHHHHHH | soluble
MGTYKKEKSRIGREGANEKKPGNLRVKGENFYRNAKDVARVNMYRGGKAKYNAAGELVRAAEFQSSEVPKARIQPDRRWFNNTRVIAQPTLTQFREAMGQKLNDPYQVLLRRNKLPMSLLQENTEIPKVRVLESEPFENTFGPKSQRKRPKISFDSVAELAKESDEKQNAYEEKIEERILANPDESDDVMLAARDAIFSKGQSKRIWNELYKVIDSSDVLIQVLDARDPVGTRCGTVERYLRNEASHKHMILVLNKVDLVPTSVAAAWVKILAKEYPTIAFHASINNSFGKGSLIQILRQFASLHSDKKQISVGLIGFPNAGKSSIINTLRKKKVCNVAPIPGETKVWQYVALMKRIFLIDCPGIVPPSSNDSDAELLLKGVVRVENVSNPEAYIPTVLSRCKVKHLERTYEISGWNDSTEFLAKLAKKGGRLLKGGEPDEASVAKMVLNDFMRGKIPWFIGPKGLSSSNDEINSSQKVATQQTEGSDQDGEEAEEEWHGISDDGKADESESTKPVAEGSASESTDESAVDDNKNRS | not soluble
MGARGRMAASKGAVMSLLLDAYQKRDKLAMVSFRKNEAFVNLPVTSSIELAARMLKEMPVGGRTPFSAGLLKGYEIAQNYLRKEPGGRPLIILVTDGKANRAIGQGKPLDEVFTISEKISREERIRFLVVDTEEPGLVTFGLAKKIAGLLDAWYYRIDDLRADTLVSIVKTMMP | not soluble
MNMPMTERIRAGKLFTDMCEGLPEKRLRGKTLMYEFNHSHPSEVEKRESLIKEMFATVGENAWVEPPVYFSYGSNIHIGRNFYANFNLTIVDDYTVTIGDNVLIAPNVTLSVTGHPVHHELRKNGEMYSFPITIGNNVWIGSHVVINPGVTIGDNSVIGAGSIVTKDIPPNVVAAGVPCRVIREINDRDKHYYFKDYKVESSV | soluble
MGSDKIHHHHHHKDEDPVLPLEGAKLSVAVKASGTATKAYNPNDVNELEGEAYINNLAVVVFNETGTELLGYKWEALSGAEHSAIIADVPTTKAVRARIIVLANVPRDLLSTVSTYDEFQTRLVDLSSQSQTNLTMSSQVIVTKSALSEEDNYLGYTDLGDQNVDGISDPILLTRVAARIDLVNISTRFAGTPFAGREVRIDAVGIYNMKTKSYYFSEADWGETEAPDAVRNSEDTSFEDLLVNDGTSISNTPFVHYVMENMKSDDHTMIAVKATLRGNSSYQDHTKIFTAVINAGGLQNGYDHNFIRRNYVYRLRIYFDGESFDNIPVTPDPGPGPDPEPEVDTNLNIAVQVVGWGPVMQHPVID | not soluble
MRPDAVMIFAAGFGTRMGALTATRPKPMIEVAGRPLIDHALALAEAAGISRIVANTHYLPESLTAHLAGRALVSHEEEILETGGGLCRALPLLGEGPVYTLNSDAVWTGENPLDELAAGWREGMEALLLLAPSGCAPGDFTMDAAGRLARARGAPGYTYLGAQILRTDRLAGVAEAKFSLNLVWDAMIAAGTAHGLIHRGGWCDVGRPEGIAAAEAMLANVLEHHHHHH | not soluble
MAHHHHHHMAEDTITFLRTVGKLKETDRTGWVEHGIPNPESVSDHMYRVAVMCMMCPDEKLDRNKLIRMALCHDAGESIVGDISPKMGVSKEDKYNQEKAAVLHLTGLLEKESPLSRELHELWEEYEAQHTPEAQFLKDIDLLEMVAQAHAYELAHPKKDLSSFFVSGEKIKHPWARNIYETLLRTRSSEK | soluble
MTYTGSIRCEGDTWDLASSVGATATMVAAARAMATRAANPLINDQFAEPLVRAVGVDVLTRLASGELTASDIDDPERPNASMVRMAEHHAVRTKFFDEFFMDATRAGIRQVVILASGLDSRAYRLAWPAQTVVYEIDQPQVMEFKTRTLAELGATPTADRRVVTADLRADWPTALGAAGFDPTQPTAWSAEGLLRYLPPEAQDRLLDNVTALSVPDSRFATESIRNFKPHHEERMRERMTILANRWRAYGFDLDMNELVYFGDRNEPASYLSDNGWLLTEIKSQDLLTANGFQPFEDEEVPLPDFFYVSARLQRKHRQYPAHRKPAPSWRHTACPVNELSKSAAYTMTRSDAHQASTTAPPPPGLTG | soluble
MYSANRSHRAETRNRSKDELRKVINSLEKVRRWEKKLVLIKDTNIRIYKWVPVSAQNIMAPPKIKEVKEVDEESNQVPSAENSQDSTSVTQPPPQFDINEDSNFSTGDHFDSDSNQTFEPQNYQGGATGSTDFSSMRDAEMTSKQP | not soluble
SLQLRPSFLLSSLRPSLTGARRLVETIFLGSRPWMPGTPRRLPRLPQRYWQMRPLFLELLGNHAQCPYGVLLKTHCPLRAAVTPAAGVCAREKPQGSVAAPEEEDTDPRRLVQLLRQHSSPWQVYGFVRACLRRLVPPGLWGSRHNERRFLRNTKKFISLGKHAKLSLQELTWKMSVRDCAWLRRSPGVGCVPAAEHRLREEILAKFLHWLMSVYVVELLRSFFYVTETTFQKNRLFFYRKSVWSKLQSIGIRQHLKRVQLREEG | not soluble
MPVLSKLARKMYSRLKSSLLNHFQKGANSSSNPSYNGLTKEEKKRLRHSLAECQLNDVYDPDSAHSSYQHSVSFVTTKPSSRHHQQTIDTSGHAPLAPQEVYLDETSSNSASTFYSDLLASSFSSAGGNSSFTCDYEDTNETSFIMSSGLPALSWNVQYIGSFPISGSYVDNLGRRIDSFQPTTSGGMQSVELSISVLGVKICCEKTVLMSHSLRRVTDISARPDTQNIGYVATEPVGRTYRRLCHVFHCQSLKEVSLKIHSVNVKLPGKSENRKSSTGVWALFAPIADHHIVTPVALFRLNLYNFKIGKNLQNNFEMWAIKIFKMFMGRNIFDQQDPEITIFKVSNSPAEEIENVLRNANQSQVLAAKQPKSAVSTSSMHPTNTASTMTEKRSASTVFLNRFLGKKGSQTVDESGQCKRKRRPVSAVFSSAIHRLSSSTSSVNPKRMSTIEPQAPTREQLLQLQNQMRCAASSPVPEEPRPTDLCAASTTTSTSSVASSSSSNGSSSSTDTSPVPPAPQTALVYDEKLGEWIYPIDQALMTQLDNCSYFVGQPTKDSMVYNLNTQPEGAFVIRYSESKSKCLALSMRVPCSHNPSGISHYLIIRNEQGFRLKLSATKKPFPTLQMMLTHHSVLESHLPCTLHFVQWQKTNFKQLAAMSTVERPLRTFNRHSTALTKIDENRNVTATSTPYRPSGRCGGGIDDFTTPKNRRTRNEINAMRRSHFFDDRQIVL | not soluble
MTSSDKSLSHDVFVYGSFQEPSVVNLILECSPVMVPAQLHGYHVYRLKGRLHACISPSENGLINGKILTGLTDSQLENLDMIEGSEYVRKTVEVVLTDTSEKKQVETYVWANKDDPNLYGEWDFEEWRRLHMDKFIEASTKFIEWKKNPDGRSREEFEKFVFDDPPTAA | soluble
AIAEAAVDWYDFWNYYYLGKYQAANDVCTTLLEPNQWPRSVLLAVIRLRLALRDLEGIRALRNLVNDTWTSSVIHELIETLQKNVPPIDDGERLRSVVFGDGSALDAVDEAGRLLAALALQRAGLYLDALETLPLSRCENDAESRACRICLWLHLNRLDRAQLEQQALEHWFERQLADGDQRAVGTLVQLSRATLAVASNDAEDVAIEAALRSCRDLAERYGPSTKLLNLTYLCLVRLGRTEASESTLQQAMNLDAQDPDTMANTAASAAKTSMMMMAFPEAATATQRPIEYLRKYAPWHPWIRAQDDFERKLRGLAT | soluble
MSKSNQKIASIEQLSNNEGIISALAFDQRGALKRMMAKHQTEEPTVAQIEQLKVLVAEELTQYASSILLDPEYGLPASDARNKDCGLLLAYEKTGYDVNAKGRLPDCLVEWSAKRLKEQGANAVKFLLYYDVDDAEEINIQKKAYIERIGSECVAEDIPFFLEVLTYDDNIPDNGSVEFAKVKPRKVNEAMKLFSEPRFNVDVLKVEVPVNMKYVEGFAEGEVVYTKEEAAQHFKDQDAATHLPYIYLSAGVSAELFQETLKFAHEAGAKFNGVLCGRATWSGAVQVYIEQGEDAAREWLRTTGFKNIDDLNKVLKDTATSWKQRK | soluble
MAHHHHHHMQTNVLERIRALEADIERCIDSIVQQDLFAASIENERHRILLDHFTLQQVGIVRSTAEKLLDVYLDEDDIVQVQNAPAESPDNIAAAVKEFEAKIADIREYHHIYRDLPPVKDELAVPSPRLLDDIFTVHERYGACFDMDAHYNRYSAFMVHTKTLAEGCVSASAEVKKELAPLSPSSVLKWSSMWPGRLDFFSFTKALPQLLLHEVEAHRKIVGFALYKPFVAELLAYLEGFYRRIHPLKPAALERLMAEVESDAEKYWASLVEVKAEVTSVAATTAAASTEDEQADVQDVEDERVEEREAGGAAGSSSKGQTAAPVRIAVGNKVACGLAIPPSLRQHVKKFSLWPLPLIEKLIEDVGQASGTSDGAVASTSKLPTSVADVKMVCLMEAKAAALLQSFLYTTLETTNTSLLRDYSRTLEELENDREVAEQEFLDSLEEVRKNSADTMEGTVAHAAEYNLKLALEDSKGSRRGRHGKASAPAPVAAAPAAPELPLEEEEEQLIGENGEPIPRWLAQLHQLDKMFRCDVCGGTIYKGPKVFREHFGAERHAEGLRRLGVMHHLKSYEGITSIRQVVEMREQLTGGESGFRKRLRDNTDNEEIQDARGHVVTAKEYLRLQQRRR | not soluble
